Entries after “also recorded” stand apart in the source; their conditions may differ.
Legend:
[1] = test system: N18 cells; experiment: Neurite outgrowth assay in N18 cells; format: cell-based; conditions: immobilized proteins coated at 500 μg/ml, 17 hours (FIG. 3A)
Experimental: FIG. 3A is a graph showing that neurite outgrowth in N18 cells is induced by immobilized laminin (Ln), immobilized TS and immobilized fragments of TS. Proteins were immobilized by incubating plates which contained wells filled with solutions of the proteins (protein concentration was 500 μg/ml) at 4° C. overnight. The protein solutions were removed and the plates were further incubated with 1% BSA at room temperature for one hour. N18 cells were cultured in the coated wells in serum-free RPMI-1640/0.2% BSA for 17 hours, and neurite outgrowth was measured by phase-contrast microscopy. […] Ln, laminin; TS, purified T. cruzi trans-sialidase; 7F, recombinant TS from clone 7F; 19Y, recombinant TS from clone 19Y; TS-F, recombinant fragment consisting of amino acid residues 33-666 of TS (SEQ ID NO:2); TS-CC-47, recombinant fragment consisting of amino acid residues 79-478 of TS (SEQ ID NO:2); TS-Cat-47, recombinant fragment consisting of amino acid residues 79-415 of TS (SEQ ID NO:2); BSA, bovine serum albumin.
96-well microtiter plates were coated overnight at 4° C. with the TS or peptides or fragments thereof, or with control proteins laminin (Ln) or bovine serum albumin (BSA) at 500 μg/ml. After removing the compounds, the plates were further incubated with 1% BSA for 1 hour at room temperature and immediately used as substratum for PC12 or N18 (Prasad, K. N., Biol Rev Camb Philos Soc, 66:431-451 (1991)) cells in serum-free RPMI/0.2% BSA. Neurite outgrowth was measured using a phase-contrast microscope 17 hours later.

[2] = test system: PC12 cells; experiment: Trophic factor withdrawal-induced apoptosis of PC12 cells (DAPI/TUNEL); format: cell-based, rat; conditions: serum-free RPMI-1640/0.2% BSA, 17 hours, DAPI or TUNEL
How it was run: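 PC12 cells were washed and plated at 2×10^5/ml in serum-free RPMI/0.2% BSA on collagen, with or without test agents. Apoptosis was scored by DAPI nuclear staining (300-400 cells counted) or TUNEL. Protection was calculated as 100% − (apoptosis% with agent ÷ apoptosis% in RPMI alone)×100%; wortmannin or LY294002 was added after 24 h, with DAPI read 24 h later.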

[3] = test system: human Schwann cells; experiment: Serum withdrawal-induced apoptosis of immortalized human Schwann cells (DAPI); format: cell-based
[4] = test system: Akt kinase in PC12 cells; experiment: Immunodetection of activated Akt (Ser 473) in PC12 cells; format: cell-based, rat; conditions: 100 ng/ml, 2, 5 or 10 minutes; phospho-Akt (Ser 473) antibody
Experimental: PC12 cells were deprived of serum for 24-48 hours, stimulated with TS, TS-F or LTR for 2, 5 or 10 minutes and immediately lysed with 2% SDS. In studies using the PI-3 kinase inhibitor, LY294002 (LY), cells were pre-treated with the inhibitor (1 μM) for 30 min prior to the addition of TS-F or TS. The proteins in the cell lysate were separated in SDS-10% polyacrylamide gels, transferred to nitrocellulose membrane (Bio-Rad) and the phosphorylated form of protein kinase Akt was detected with phospho-Akt (Ser 473) antibody (New England BioLabs, Beverly, Mass.), followed by alkaline phosphatase-conjugated secondary antibody (Promega, Madison, Wis.). Bands corresponding to phospho-Akt (60 kDa) were quantified using a scanning densitometer (Bio-Rad).

[5] = test system: human bladder carcinoma T-24 cell line; experiment: IL-6 secretion by T-24 carcinoma cells (ELISA); format: cell-based; conditions: 24 hours culture
Experimental: Primary cultures of human intestinal microvascular endothelial cells (HIMEC) isolated from normal jejunal mucosa/submucosal tissue were prepared as described (Strong et al., Gastroenterology 114: 1244-1256 (1998)). The HIMEC were cultured in fibronectin-coated plasticware in MCDB medium (Sigma) supplemented with 20% FBS, 90 μg/ml heparin and 50 μg/ml endothelial cell growth factor (Sigma). T-24 cells (ATCC Accession No. HTB-4) were cultured in M199 medium supplemented with 10% FBS. PBMC were purified by Ficoll-Paque gradient as described (Current Protocols in Immunology, pp 7.1.1-7.1.2). Vero cells (ATCC Accession No. CCL-81) were grown in RPMI medium with 5% Nu serum and infected with the Silvio X-10/4 of T. cruzi as described previously (Chuenkova et al., J. Exp. Med. 181: 1693-1703, (1995)).
Endothelial cells and T-24 cells were plated on 24-well plates at a density of 1×10^3 cells/well, while peripheral blood mononuclear cells (PBMC) were plated in the similar wells at 1×10^6/well. Triplicat cultures of cells were incubated test agents for a predetermined amount of time. […] Cytokines and chemokines released in the culture supernatants were measured by ELISA assay following the instructions of the manufacturer (Endogen). The cytokines tested were IL-1β, IL-4, IL-8, IL-10, IL-12, IFN-γ, TNF-α, and the chemokines RANTES and MCP-1. Negative controls were cells incubated in medium containing polymixin B at 10 μg/ml, and positive controls were cells incubated with bacterial LPS at the low ng/ml range (for PBMC or HIMEC) or in the μg/ml range for carcinoma T-24 cells. In some experiments, IL-1β, or TNFα were used as positive control for cytokine release.

B1: TS-F: recombinant full catalytic domain of TS, amino acid residues 33-666, His-tagged, expressed in E. coli (protein, listed as Trypanosoma cruzi)
chain: ETQIAIKNSRVSSVSRVVDPTVIVKGNKLYVLVGSYYSSRSYWSSHGDARDWDILLAVGEVTKSTAGGKITASIKWGSPVSLKKFFPAEMEGMHTNQFLGGAGVAIVASNGNLVYPVQVTNKRKQVFSKIFYSEDDGKTWKFGKGRSDFGCSEPVALEWEGKLIINTRVDWKRRLVYESSDMEKPWVEAVGTVSRVWGPSPKSNQPGSQTSFTAVTIEGMRVMLFTHPLNFKGRCVRDRLNLWLTDNQRIYNVGQVSIGDENSAYSSVLYKDDKLYCLHEINTDEVYSLVFARLVGELRIIKSVLRSWKNWTATCPAFAPLLIQPLRRQRVVVVPLSPRLVLLAFCRQRLPKRMGGSYRCVNASTANAERVRNGLKFAGVGGGALWPVSQQGQNQRYRFANHAFTLVASVTIHEAPRAASPLLGASLDSSGGKKLLGLSYDEKHQWQPIYGSTPVTPTGSWETGKRYHLVLTMANKIGSVYIDGELLEGSGQTVVPDGRTPDISHFYVGGYKRSDMPTISHVTVNNVLLYNRRQLNTEEIRTLFLSQDLIGTEAHMDSSSDSSAHSTPSTPADSSAHSTPSTPVDSSAHSTPSTPADSSAHGTPSTPVDSSAHGTPSTPADSSAHGTPSTPVDS
modifications: His tag
notes: recombinant full catalytic domain of TS, amino acid residues 33-666, His-tagged, expressed in E. coli
neurite outgrowth in N18 cells [1]: induced neurite outgrowth to about the same extent as the intact enzyme | protection of PC12 cells from apoptosis induced by trophic factor withdrawal [2]: survival being induced | fragmented nuclei in serum-starved Schwann cells transfected with empty vector (neo) ([3]; CD 500 ng/ml): decreased the number of fragmented nuclei by about ten-fold | survival of Schwann cells transfected with PTEN mutant pG129R ([3]; CD 500 ng/ml): did not detectably enhance | protection of Schwann cells from apoptosis compared with 2% serum ([3]; CD 500 ng/ml (6 nM) in serum-free DMEM, 72 hours, listed as CD): nearly as effective as 2% serum | survival of control Schwann cells transfected with GFP vector ([3]; CD 500 ng/ml, serum-free 48 hours): did increase survival | survival of Schwann cells over expressing kinase-inactive Akt (AktKI) ([3]; CD 500 ng/ml, serum-free 48 hours, listed as CD): did not increase survival; also recorded: did not promote survival | rescue from apoptosis of Schwann cells over expressing PTEN ([3]; CD 500 ng/ml, listed as CD): did not rescue cells from apoptotic death | inhibition of serum withdrawal-induced apoptosis of human Schwann cells ([3]; serum-free DMEM, 24-72 hours, DAPI, listed as CD): protected Schwann cells against apoptosis; also recorded: protected human Schwann cells from apoptosis; also recorded: dose-dependent inhibition | phosphorylation/activation of Akt kinase in PC12 cells [4]: effective in activating Akt | IL-6 secretion by T-24 cells [5]: did not promote IL-6 release

— patent US8114412B2, “T. cruzi-derived neurotrophic agents and methods of use therefor” (priority 1999, dated 2012)
